{"source": "paper PMC12774641", "biological_target": "SpβL1 Namat (nicotinamide ADP-ribose transferase), untagged (SpβL1 phage)", "assay": "mass photometry; Refeyn mass photometry; 50 nM Namat after gel filtration"}
{"substance": "SpβL1 Namat (nicotinamide ADP-ribose transferase), untagged (enzyme)", "values": [{"measurement": "stoichiometry N", "result": 2}]}
